The results in this text go back to PMC6467989, “RNA recognition motifs of disease-linked RNA-binding proteins contribute to amyloid formation” (Scientific Reports, 2019).

Series [1] concerns the molecule itself. The series is described as follows: Thioflavin T fluorescence; fresh protein or fibrillar solutions mixed with ThT (final 20 μM), 10 mM phosphate buffer, excited at 442 nm, emission 460–600 nm; self-assembly into amyloid-like aggregates.
Series [2] concerns the molecule itself. The series is described as follows: X-ray fibre diffraction; fibrils grown by agitation at room temperature for two days (RRMs 50 μM in 10 mM phosphate pH 7.5, 50 mM NaCl; peptides in water), also seen by negative-stain TEM; fibrils centrifuged, washed, dried, diffraction at room temperature; self-assembly into amyloid fibrils.
Series [3] concerns the molecule itself. The series is described as follows: ATR-FTIR spectroscopy; fresh protein or peptide against freshly prepared fibrils washed and re-suspended in D2O; amide I band 1600–1700 cm^-1; self-assembly into amyloid fibrils of parallel β-sheets.

B1: FUS RRM (residues 281–375) (domain or fragment, human, UniProt P35637 281-375, looked up)
chain: NSDNNTIFVQGLGENVTIESVADYFKQIGIIKTNKKTGQPMINLYTDRETGKLKGEATVSFDDPPSAKAAIDWFDGKEFSGNPIKVSFATRRADF
notes: Fused in Sarcoma (FUS), human, RNA recognition motif, residues 281-375; Vector PQE30 or pET28a; also called Fused in Sarcoma RRM; source: E. coli (M15 or BL21-CodonPlus (DE3) RIPL), purified (HisTrap FF, HiTrap Heparin HP, Superdex 75)
In the case of B1, the binding result in series [1] is “binds”.

B2: TDP-43 RRM1 β2b peptide (peptide)
peptide: GEVLMVQVKK
notes: TDP-43, human, β2 strand of RRM1, residues 128-137; source: synthetic peptide (synthesized by Mission Biotech)
On to B2, for which the binding result in series [2] is recorded as “binds”.

B3: TDP-43 RRM1 β2a peptide (peptide)
peptide: VLMVQVKK
notes: TDP-43, human, β2 strand of RRM1, residues 130-137; source: synthetic peptide (synthesized by Mission Biotech)
As for B3, the binding result in series [2] was “binds”.

B4: FUS RRM β2 peptide (peptide)
peptide: MINLYT
notes: FUS, human, β2 strand of the RRM, residues 321-326; source: synthetic peptide (synthesized by Mission Biotech)
Consider B4, for which the binding result in series [3] was “binds”.
